From patent publication US20200048332A1 (BIOVERATIV USA, published 2020)

T1: activated C1s (human, UniProt P09871 16-688)
T1 sequence: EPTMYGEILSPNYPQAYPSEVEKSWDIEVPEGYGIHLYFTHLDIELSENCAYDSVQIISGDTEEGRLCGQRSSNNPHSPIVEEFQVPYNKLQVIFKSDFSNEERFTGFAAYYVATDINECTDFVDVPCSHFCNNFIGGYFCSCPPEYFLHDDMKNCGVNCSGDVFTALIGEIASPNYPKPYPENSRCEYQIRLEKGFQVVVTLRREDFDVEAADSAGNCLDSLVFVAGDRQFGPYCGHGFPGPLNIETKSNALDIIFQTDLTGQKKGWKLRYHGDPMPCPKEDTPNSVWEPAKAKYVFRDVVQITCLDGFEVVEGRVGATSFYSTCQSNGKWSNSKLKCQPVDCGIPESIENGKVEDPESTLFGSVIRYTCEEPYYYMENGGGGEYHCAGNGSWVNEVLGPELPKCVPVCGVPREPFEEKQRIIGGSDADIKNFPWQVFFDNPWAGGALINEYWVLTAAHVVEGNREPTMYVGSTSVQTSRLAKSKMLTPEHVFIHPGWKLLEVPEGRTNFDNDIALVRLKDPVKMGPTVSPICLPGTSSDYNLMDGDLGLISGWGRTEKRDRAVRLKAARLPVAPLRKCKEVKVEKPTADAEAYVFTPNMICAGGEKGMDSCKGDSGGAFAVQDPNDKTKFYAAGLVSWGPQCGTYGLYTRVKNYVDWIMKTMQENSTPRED

B1: murine anti-activated C1s antibody (antibody, V domains shown)
VH: EVQLQQSGAELVRPGASVKLSCTASGFNIKDDYIHWVKQRPEQGLEWIGRIDPADGHTKYAPKFQVKATITADTSSNTAYLQLSSLTSEDTAVYYCARYGYGREVFDYWGQGTTLTVSS
VL: DIVLTQSPASLAVSLGQRATISCKASQSVDYDGDSYMNWYQQKTGQPPKILIYDASNLESGIPARFSGSGSGTDFTLNIHPVEEEDAAIYYCQQSNEDPWTFGGGTKLEIK
B2: humanized VH3/Vk2 (antibody, V domains shown)
VH: QVQLVQSGAEVKKPGASVKLSCTASGFNIKDDYIHWVKQAPGQGLEWIGRIDPADGHTKYAPKFQVKVTITADTSTSTAYLELSSLRSEDTAVYYCARYGYGREVFDYWGQGTTVTVSS
VL: DIVLTQSPDSLAVSLGERATISCKASQSVDYDGDSYMNWYQQKPGQPPKILIYDASNLESGIPARFSGSGSGTDFTLTISSLEPEDFAIYYCQQSNEDPWTFGGGTKVEIK
B3: humanized VH1/Vk1 (antibody, V domains shown)
VH: EVQLVQSGAELKKPGASVKLSCTASGFNIKDDYIHWVKQAPGQGLEWIGRIDPADGHTKYAPKFQVKATITADTSTNTAYLQLSSLTSEDTAVYYCARYGYGREVFDYWGQGTTVTVSS
VL: DIVLTQSPDSLAVSLGERATISCKASQSVDYDGDSYMNWYQQKTGQPPKILIYDASNLESGIPARFSGSGSGTDFTLTISSLEEEDFAIYYCQQSNEDPWTFGGGTKVEIK
B4: humanized VH1/Vk2 (antibody, V domains shown)
VH: EVQLVQSGAELKKPGASVKLSCTASGFNIKDDYIHWVKQAPGQGLEWIGRIDPADGHTKYAPKFQVKATITADTSTNTAYLQLSSLTSEDTAVYYCARYGYGREVFDYWGQGTTVTVSS
VL: DIVLTQSPDSLAVSLGERATISCKASQSVDYDGDSYMNWYQQKPGQPPKILIYDASNLESGIPARFSGSGSGTDFTLTISSLEPEDFAIYYCQQSNEDPWTFGGGTKVEIK
B5: humanized VH1/Vk5 (antibody, V domains shown)
VH: EVQLVQSGAELKKPGASVKLSCTASGFNIKDDYIHWVKQAPGQGLEWIGRIDPADGHTKYAPKFQVKATITADTSTNTAYLQLSSLTSEDTAVYYCARYGYGREVFDYWGQGTTVTVSS
VL: DIVLTQSPDSLAVSLGERATISCKASQSVDYDGDSYMNWYQQKPGQPPKLLIYDASNLESGIPARFSGSGSGTDFTLTISSLEPEDFAVYYCQQSNEDPWTFGGGTKVEIK
B6: humanized VH2/Vk1 (antibody, V domains shown)
VH: EVQLVQSGAEVKKPGASVKLSCTASGFNIKDDYIHWVKQAPGQGLEWIGRIDPADGHTKYAPKFQVKATITADTSTNTAYLELSSLRSEDTAVYYCARYGYGREVFDYWGQGTTVTVSS
VL: DIVLTQSPDSLAVSLGERATISCKASQSVDYDGDSYMNWYQQKTGQPPKILIYDASNLESGIPARFSGSGSGTDFTLTISSLEEEDFAIYYCQQSNEDPWTFGGGTKVEIK
B7: humanized VH2/Vk5 (antibody, V domains shown)
VH: EVQLVQSGAEVKKPGASVKLSCTASGFNIKDDYIHWVKQAPGQGLEWIGRIDPADGHTKYAPKFQVKATITADTSTNTAYLELSSLRSEDTAVYYCARYGYGREVFDYWGQGTTVTVSS
VL: DIVLTQSPDSLAVSLGERATISCKASQSVDYDGDSYMNWYQQKPGQPPKLLIYDASNLESGIPARFSGSGSGTDFTLTISSLEPEDFAVYYCQQSNEDPWTFGGGTKVEIK
B8: humanized VH3/Vk1 (antibody, V domains shown)
VH: QVQLVQSGAEVKKPGASVKLSCTASGFNIKDDYIHWVKQAPGQGLEWIGRIDPADGHTKYAPKFQVKVTITADTSTSTAYLELSSLRSEDTAVYYCARYGYGREVFDYWGQGTTVTVSS
VL: DIVLTQSPDSLAVSLGERATISCKASQSVDYDGDSYMNWYQQKTGQPPKILIYDASNLESGIPARFSGSGSGTDFTLTISSLEEEDFAIYYCQQSNEDPWTFGGGTKVEIK
B9: humanized VH3/Vk5 (antibody, V domains shown)
VH: QVQLVQSGAEVKKPGASVKLSCTASGFNIKDDYIHWVKQAPGQGLEWIGRIDPADGHTKYAPKFQVKVTITADTSTSTAYLELSSLRSEDTAVYYCARYGYGREVFDYWGQGTTVTVSS
VL: DIVLTQSPDSLAVSLGERATISCKASQSVDYDGDSYMNWYQQKPGQPPKLLIYDASNLESGIPARFSGSGSGTDFTLTISSLEPEDFAVYYCQQSNEDPWTFGGGTKVEIK
B10: humanized VH4/Vk1 (antibody, V domains shown)
VH: QVQLVQSGAEVKKPGASVKVSCTASGFNIKDDYIHWVRQAPGQGLEWIGRIDPADGHTKYAPKFQVKVTITADTSTSTAYMELSSLRSEDTAVYYCARYGYGREVFDYWGQGTTVTVSS
VL: DIVLTQSPDSLAVSLGERATISCKASQSVDYDGDSYMNWYQQKTGQPPKILIYDASNLESGIPARFSGSGSGTDFTLTISSLEEEDFAIYYCQQSNEDPWTFGGGTKVEIK
B11: humanized VH4/Vk2 (antibody, V domains shown)
VH: QVQLVQSGAEVKKPGASVKVSCTASGFNIKDDYIHWVRQAPGQGLEWIGRIDPADGHTKYAPKFQVKVTITADTSTSTAYMELSSLRSEDTAVYYCARYGYGREVFDYWGQGTTVTVSS
VL: DIVLTQSPDSLAVSLGERATISCKASQSVDYDGDSYMNWYQQKPGQPPKILIYDASNLESGIPARFSGSGSGTDFTLTISSLEPEDFAIYYCQQSNEDPWTFGGGTKVEIK
B12: humanized VH4/Vk5 (antibody, V domains shown)
VH: QVQLVQSGAEVKKPGASVKVSCTASGFNIKDDYIHWVRQAPGQGLEWIGRIDPADGHTKYAPKFQVKVTITADTSTSTAYMELSSLRSEDTAVYYCARYGYGREVFDYWGQGTTVTVSS
VL: DIVLTQSPDSLAVSLGERATISCKASQSVDYDGDSYMNWYQQKPGQPPKLLIYDASNLESGIPARFSGSGSGTDFTLTISSLEPEDFAVYYCQQSNEDPWTFGGGTKVEIK
B13: humanized VH5/Vk1 (antibody, V domains shown)
VH: QVQLVQSGAEVKKPGASVKVSCAASGFNIKDDYIHWVRQAPGQGLEWIGRIDPADGHTKYAPKFQVKVTITADTSTSTAYMELSSLRSEDTAVYYCARYGYGREVFDYWGQGTTVTVSS
VL: DIVLTQSPDSLAVSLGERATISCKASQSVDYDGDSYMNWYQQKTGQPPKILIYDASNLESGIPARFSGSGSGTDFTLTISSLEEEDFAIYYCQQSNEDPWTFGGGTKVEIK
B14: humanized VH5/Vk2 (antibody, V domains shown)
VH: QVQLVQSGAEVKKPGASVKVSCAASGFNIKDDYIHWVRQAPGQGLEWIGRIDPADGHTKYAPKFQVKVTITADTSTSTAYMELSSLRSEDTAVYYCARYGYGREVFDYWGQGTTVTVSS
VL: DIVLTQSPDSLAVSLGERATISCKASQSVDYDGDSYMNWYQQKPGQPPKILIYDASNLESGIPARFSGSGSGTDFTLTISSLEPEDFAIYYCQQSNEDPWTFGGGTKVEIK
B15: humanized VH5/Vk5 (antibody, V domains shown)
VH: QVQLVQSGAEVKKPGASVKVSCAASGFNIKDDYIHWVRQAPGQGLEWIGRIDPADGHTKYAPKFQVKVTITADTSTSTAYMELSSLRSEDTAVYYCARYGYGREVFDYWGQGTTVTVSS
VL: DIVLTQSPDSLAVSLGERATISCKASQSVDYDGDSYMNWYQQKPGQPPKLLIYDASNLESGIPARFSGSGSGTDFTLTISSLEPEDFAVYYCQQSNEDPWTFGGGTKVEIK
B16: VH3/VK2-Fc-sub4 (antibody, human IgG4 S228P, kappa, V domains shown)
VH: QVQLVQSGAEVKKPGASVKLSCTASGFNIKDDYIHWVKQAPGQGLEWIGRIDPADGHTKYAPKFQVKVTITADTSTSTAYLELSSLRSEDTAVYYCARYGYGREVFDYWGQGTTVTVSS
VL: DIVLTQSPDSLAVSLGERATISCKASQSVDYDGDSYMNWYQQKPGQPPKILIYDASNLESGIPARFSGSGSGTDFTLTISSLEPEDFAIYYCQQSNEDPWTFGGGTKVEIKR
notes: Humanized IgG4; also called TNT020; humanized anti-aC1s variant VH3/VK2-Fc-sub4

Each binder was assayed against T1, activated C1s (assay: cell-based or functional assay).
In the case of B1, the “IC50 of classical complement pathway inhibition ('Classical Pathway Inhibition', IC50 (M))” value is reported as 1.06e-09 M. In the case of B2, the “IC50 of classical complement pathway inhibition ('Classical Pathway Inhibition', IC50 (M))” value is reported as 1.26e-09 M. For B3, the “IC50 of classical complement pathway inhibition ('Classical Pathway Inhibition', IC50 (M))” value was 1.2e-09 M. For B4, the “IC50 of classical complement pathway inhibition ('Classical Pathway Inhibition', IC50 (M))” value was 1.14e-09 M. In the case of B5, the “IC50 of classical complement pathway inhibition ('Classical Pathway Inhibition', IC50 (M))” value is reported as 1.26e-09 M. For B6, the “IC50 of classical complement pathway inhibition ('Classical Pathway Inhibition', IC50 (M))” value was 1.23e-09 M. In the case of B7, the “IC50 of classical complement pathway inhibition ('Classical Pathway Inhibition', IC50 (M))” value is reported as 1.27e-09 M. B8 was tested, and the “IC50 of classical complement pathway inhibition ('Classical Pathway Inhibition', IC50 (M))” value was 1.27e-09 M. In the case of B9, the “IC50 of classical complement pathway inhibition ('Classical Pathway Inhibition', IC50 (M))” value is reported as 1.38e-09 M. In the case of B10, the “IC50 of classical complement pathway inhibition ('Classical Pathway Inhibition', IC50 (M))” value is reported as 1.35e-09 M. For B11, the “IC50 of classical complement pathway inhibition ('Classical Pathway Inhibition', IC50 (M))” value was 1.31e-09 M. With B12 the “IC50 of classical complement pathway inhibition ('Classical Pathway Inhibition', IC50 (M))” value was 1.54e-09 M. With B13 the “IC50 of classical complement pathway inhibition ('Classical Pathway Inhibition', IC50 (M))” value was 1.08e-09 M. For B14, the “IC50 of classical complement pathway inhibition ('Classical Pathway Inhibition', IC50 (M))” value was 1.33e-09 M. With B15 the “IC50 of classical complement pathway inhibition ('Classical Pathway Inhibition', IC50 (M))” value was 1.33e-09 M.

What follows are binders tested against T1, activated C1s (assay: method not stated; dissociation constant for active C1s).
Work on B16 yielded a Kd of 1.53 nM.
